In PMC12786357:
Blank lines part the entries; values can stand above or below the molecule they belong to.

Columns and labels:
[1] = molecular target: S. cerevisiae GPI transamidase (GPIT) complex (S. cerevisiae); test: cryo-EM structure; dimeric GPIT peak of the SEC, about 5 mg/mL, in GDN; overall resolution 4.4 Å; two copies of the monomer model docked as rigid bodies
[2] = FACS, surface GFP-V5-CWP2 in yeast chromosomal mutants; conditions: glycan lost; control: wild type
[3] = anti-FLAG western blot, HEK293F; conditions: glycan lost; control: wild type

stoichiometry N [1]: 2
Molecule: S. cerevisiae GPI transamidase (GPIT) complex

B1: Gpi16: N29Q (protein)
parent chain: MILTLAYFMLGTLLLGVFAEDTVSQIGINDSLWYPYDEALVLKPLPNNDLLLSFAFQLQSEPFDPAVSSMSYDAYEHYTTFPRAIPPLLESTATRQFHLRFTRGFWDALSWGQLPHAGKEAGASGVELWSQVQAMDQEQAFHNWKKLSNSLSGLFCSSLNFIDESRTTFPRRSYASDIGAPLFNSTEKLYLMRASLPNEPICTENLTPFIKLLPTRGKSGLTSLLDGHKLFDSLWNSISLDIATICSEDEDALCHYEMDARIEMVTHVPSALARGERPIPKPLDGNTLRCDTDKPFDSYQCFPLPEPSQTHFKLSQLFARPINNGNLFANRPTRICAEVDRSTWTAFLSVDDTIFSTHDNCFDLSNDQNEGGSGYDFILESTDTTKVTPIVPVPIHVSRSLTGNGQDRGGMRIVFHNDNDTPVKLIYFESLPWFMRVYLSSLQITSTTSPQLQENDIILDKYYLQAADRKRPGHLEFTMLIPANTDIVMTYQFDKALLQFAEYPPDANHGFEIDAAVITVLSLESSSSLYEMRTSTLLLSLSTPDFSMPYNVIILTSTIMGLIFGMLYNLMVKRMVTVEEADKITLQSGLKYKLLKLKEKFLGKKKTKTD
enzymatic_activity [2]: no change | expression_or_secretion [3]: no change

B2: Gpi16: N184Q (protein)
parent chain: B1 parent chain
enzymatic_activity [2]: no change | expression_or_secretion [3]: no change

B3: Gpi17: N228Q (protein)
parent chain: MSNANLRKWVGFCFVAIYLFLGVPLWYKLTTVYRASLPINYIESLQNNKFQDIHLVIPVYVKSDTYRFPDVHDAIQVQVNHLLNSQEQRVPWSLQVLPYNETIEQMESEGNQFHVVTLKLDEFIGYSSAYDTKETLVYYDDAAVLSNDLPFFVAQTLVEHTFQLEWTHLNKTCEGVSTNNDVAISYDPNIHLSVTLLSGDGNPVAWEIEPTLTDYFSPFRKFLSPLVNFTVDSSIVYHNDLNLHSLNGSCTSVTWFDLSHTIDLSELSSMAYYPEDSALNLAIVFPSASSSPDGLAFINGTRISDEITTLDWNSYLVPQWGVIIINKMPLKPNSVISEDYLEPMMYRFATDIFQLLGLTEGSQDLLSPYITIDSFKRLTILQNLDKATETLWSLVKLTQQFQGMSIPREVSDNVIEALDLRLQIIDLLNDPGKGGDIVWNNALHLSNELVKLCEKAFFNGEMVQQNFFPQEHMIAVYLPLLGPISAVMFFGFYNVMKEKNQKSKKNGTEREVAKEKLELKEAQKLHAIDGEDEL
enzymatic_activity [2]: decreases | expression_or_secretion [3]: no change

B4: Gpi17: N299Q (protein)
parent chain: B3 parent chain
enzymatic_activity [2]: decreases | expression_or_secretion [3]: no change
